Reference: patent publication US20070014799A1

Experiments:
[1] = biological target: monoclonal antibody ZAL2-103a producible from the hybridoma ZAL2-103 (FERM BP-8431); test: competitive EIA: unlabeled human ZAQL-2 against HRP-labeled human ZAQL-2 on ZAL2-103a (50 ng/ml) captured on anti-mouse immunoglobulin plate
[2] = biological target: monoclonal antibody ZAL2-106a producible from the hybridoma ZAL2-106 (FERM BP-8432); test: competitive EIA: unlabeled human ZAQL-2 against HRP-labeled human ZAQL-2 on ZAL2-106a (50 ng/ml) captured on anti-mouse immunoglobulin plate

B1: Human ZAQL-2 (human Bv8 maturation peptide) (ligand)
chain: AVITGACDKDSQCGGGMCCAVSIWVKSIRICTPMGKLGDSCHPLTRKVPFFGRRMHHTCPCLPGLACLRTSFNRFICLAQK
IC50 [1]: 0.8 nM
IC50 [2]: 3 nM
